In publication PMC8636641:

System: dTao (Drosophila melanogaster)
Test: fluorescence quenching (initial fluorescence, MST instrument)
Details: inosine homopolymer strand; Pull-down: TAP buffer 50 mM Tris pH 7.5, 100 mM NaCl, 5% glycerol, 0.2% NP-40, 1.5 mM MgCl2, 60 min; quenching assay buffer not stated (dTao storage 20 mM Tris …)

Substance: FITC-poly(I:C)
- Kd: 42 nM
